These results are taken from publication PMC10582461, “Self‐Aggregating Tau Fragments Recapitulate Pathologic Phenotypes and Neurotoxicity of Alzheimer's Disease in Mice” (Advanced Science, 2023).

This data set concerns the molecule itself. Put plainly: in vitro self-aggregation, non-reducing SDS-PAGE and immunoblot; tau-AC species alone (40-100 µM) in self-assembly buffer (10 mM HEPES pH 7.4, 100 mM NaCl, 1 mM DTT), 37 °C, shaking 250 rpm, no inducers; non-reducing SDS-PAGE, IB and CBB. On the technique in general: In western blotting, separated proteins are transferred to a membrane and probed.

B1: tau‐AC‐TQDVSK (tau‐AC with the PHF6 motif substituted with hydrophilic residues) (domain or fragment, human, UniProt P10636-8 306-378, looked up)
chain: TQDVSKPVDLSKVTSKCGSLGNIHHKPGGGQVEVKSEKLDFKDRVQSKIGSLDNITHVPGGGNKKIETHKLTF
notes: human tau residues 306-378 of 2N4R (441 residues) with 306VQIVYK311 changed to TQDVSK; numbers count on: 2N4R tau (441 residues); source: E. coli Rosetta 2 (DE3), pET28a, purified
With B1, the binding result is “binds”.
